From article PMC3812978 (The Journal of Cell Biology, 2013)

Target: the molecule itself
Assay: AUC

B1: nontagged Atg38 (recombinant) (natural protein, budding yeast, UniProt Q05789 1-226, looked up)
chain: MSTLAEVYTIIEDAEQECRKGDFTNAKAKYQEAIEVLGPQNENLSQNKLSSDVTQAIDLLKQDITAKIQELELLIEKQSSEENNIGMVNNNMLIGSVILNNKSPINGISNARNWDNPAYQDTLSPINDPLLMSILNRLQFNLNNDIQLKTEGGKNSKNSEMKINLRLEQFKKELVLYEQKKFKEYGMKIDEITKENKKLANEIGRLRERWDSLVESAKQRRDKQKN
stoichiometry N: 2
